Consider one substance from article PMC12616241.

The target of experiment [1] is FcγRIIIa on NK cells (human (endogenous in NK cells)) (UniProt P08637).
For experiment [2] the target is unchanged. Description: flow cytometry on cells; purified human NK cells incubated on ice with titrated monomeric antibody (0.03–10 µg/mL), detected with anti-F(ab′)2-Alexa Fluor 647. A general note: In flow cytometry, cells or beads pass a laser one at a time.

FcγRIIIa on NK cells (human (endogenous in NK cells)), sequence (P08637 17-208): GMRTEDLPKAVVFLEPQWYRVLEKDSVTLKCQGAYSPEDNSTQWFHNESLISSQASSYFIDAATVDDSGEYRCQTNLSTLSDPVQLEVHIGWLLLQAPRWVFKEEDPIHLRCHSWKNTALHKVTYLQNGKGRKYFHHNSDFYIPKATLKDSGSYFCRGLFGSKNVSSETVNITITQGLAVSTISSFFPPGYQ

Turning to “anti-FRα IgG1-DE/GM (MOv18 variable regions, human IgG1 with S239D and I332E, glycomodified) (antibody)”, in experiment [1], the fold decrease in EC50 of NK cell-mediated ADCC (LDH release, 4 h, 10:1) against CAL51, compared with IgG1-GM and IgG1-DE was found to be 100 fold; the fold decrease in EC50 of NK cell-mediated ADCC (LDH release, 4 h, 10:1) against CAL51, compared with IgG1-WT was found to be 4000 fold. Moreover, the fold greater KD than IgG1-WT (so in the source); stronger binding is meant in experiment [2] amounted to 100 fold.
